Measured values taken from patent US6905817B1, “Ret-independent signaling pathway for GDNF” (Licestia Ltd., priority 1998, dated 2005).
“Also recorded” adds a separate entry of the source.

Experiments:
[1] = test system: CREB; assay: CREB Ser-133 phosphorylation assay in Ret^−/− DRG neurons; assay type: cell-based, mouse; conditions: after GDNF treatment
Protocol: (§1) To assess GDNF-dependent MAPK and CREB phosphorylation in all studied cell lines, the semiconfluent cell monolayers were starved for 3 hours in serum-free medium, and then GDNF was applied for the indicated time. For the analysis of MAPK and CREB activation in Ret^−/− animals the DRG neurons were dissected from E18 mice and maintained in NGF-containing medium for 2 hours. After this time the neurons were deprived of NGF by placing them in NGF-free medium in the presence of anti-NGF antibodies. After 2 hr without NGF, the neurons were stimulated with GDNF. In the experiments involving Src-kinase inhibition, a Src-family kinase inhibitor PP2 was added at the indicated concentrations to the cell monolayers 5 min before GDNF application. In some experiments 1 μg/ml of soluble GFRα1 lacking a GPI anchor (GFRα1/Fc chimeric protein; R&D systems) was added 5 min prior to the GDNF application and was kept in the solution during the GDNF treatment, After stimulation, the cells were briefly washed with PBS/sodium vanadate and lysed in the buffer containing TBS, 2 mM EDTA, 1% NP-40, 1% Triton X-100, 1 mM PMSF, 1 mM Na3VO4 and a Complete, protease inhibitors cocktail (Boehringer Mannheim). Total cell protein for each extract was measured by MicroBSA (Pierce) and an equivalent amount of protein was resolved electrophoretically on 10% polyacrylamide gels. […]

[2] = test system: p42/p44 MAPK; assay: MAPK phosphorylation assay in SHEP neuroblastoma cells; assay type: cell-based, human; conditions: GDNF 100 ng/ml
Protocol: as §1

[3] = test system: CREB-related protein ATF-1; assay: ATF-1 phosphorylation in SHEP cells; assay type: cell-based, human; conditions: GDNF treatment
Protocol: as §1

[4] = test system: MAPK; assay: MAPK phosphorylation in parental NIH3T3 fibroblasts lacking both Ret and GFRα1; assay type: cell-based; conditions: GDNF 100 ng/ml alone
Protocol: as §1

[5] = test system: PLCγ; assay: PLCγ tyrosine phosphorylation (immunoprecipitation and Western blotting) in SHEP cells; assay type: cell-based, human
Protocol: To determine changes in GDNF-evoked PLCγ tyrosine phosphorylation the Western blotting assays were performed as described in Khare et al. (1997). Briefly, SHEP neuroblastoma cells were pre-incubated with 1 mM sodium vanadate in serum-free medium for 30 min. at 37 ° C. and then were treated at 37 ° C. with 1-100 ng/ml GDNF for 1 min. unless otherwise indicated. Incubation was stopped by the addition of ice-cold PBS buffer containing 1 mM sodium vanadate. Whole cell lysates (final protein concentration 0.1-0.3 mg/ml) were prepared at 4° C. in an extraction buffer (pH 7.5) containing 50 mM Tris-HCl, 137 mM NaCl, 1 mM sodium vanadate, 1 mM PMSF, 10% glycerol, 1% NP-40 and protease inhibitors cocktail (Boehringer). Phosphotyrosine-containing proteins were immunoprecipitated with 4G-10 antibodies (Upstate Biotechnology), collected with Protein A Sepharose beads and separated on the 7.5% SDS-PAGE. The proteins were transferred to Hybond-ECL nitrocellulose membrane, and PLCγ was assessed by Western blotting using anti-PLCγ antibodies (Upstate Biotechnology). In some experiments we first immunoprecipitated PLCγ from the cell lysate using anti-PLCγ antibodies and probed the filter with anti-phosphotyrosine 4G-10 antibodies as described above. […]

B1: Glial cell line—derived neurotrophic factor (protein, UniProt P39905 78-211, looked up)
Glial cell line-derived …: SPDKQMAVLPRRERNRQAAAANPENSRGKGRRGQRGKNRGCVLTAIHLNVTDLGLGYETKEELIFRYCSGSCDAAETTYDKILKNLSRNRRLVSDKVGQACCRPIAFDDDLSFLDDNLVYHILRKHSAKRCGCI
notes: TGF-β family-related neurotrophic protein; from PeproTech and donated by Cephalon, Inc
CREB phosphorylation in Ser-133 [1]: increased substantially already at 5 min | p42/p44 MAPK phosphorylation [2]: transient and profound increase of p42/p44 MAPK phosphorylation | phosphorylation / activation of ATF-1 [3]: induced phosphorylation of the CREB-related protein ATF-1; also recorded: robust GDNF-dependent activation of the CREB-related protein ATF-1 | MAPK phosphorylation [4]: did not evoke any MAPK phosphorylation | time to return to basal tyrosine phosphorylation levels of PLCγ ([5]; GDNF): ≤ 5 min | PLCγ tyrosine phosphorylation ([5]; GDNF 1-100 ng/ml, 1 min): significantly increased PLCγ tyrosine phosphorylation; also recorded: dose-dependent increase in PLCγ tyrosine phosphorylation
